From a protein production outcome set (Wang et al. 2014) come the findings set out here.

The data set in a line: label from the status in PepcDB records.
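Also: failed if final PepcDB status was selected cloned or expressed and not failed if soluble or beyond.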

“MDLKGWISKKSSNVSYEKIKYEFSNVKYSVDHGRLEILHGIKGILLPKTITVIMGPSGSGKTTLLNILSMKVTEGVEGDFLINDMSRMKNIKRHMGYVLQDDYFFSRLTVYETIEFTAKLKLDIRDKKKLNELVHSVLDIMSLTHVKDTIVGDAFIRGISGGQRKRLSIANEILSNPPLLLMDEPTSGLDSSSALSLVECIQRIAQTSNTTIISSLHQPSSQVFSKFDRLIAITNGYIIYHGKTTDLNKYLKKVGFICPYGWNVADYLMDILSNKKFEAILIDNYNKYLHFDSDVGYYMNVKAIDSKIIHDDYDSILEKTNQSISKNSQTNNKSSTNLSSINKSPILSTQENKTREHDILKFQAVELLISLQENKTPYIRQNFFLLIRGLKKIITDEITIIKVIDLVVILTLFGVLWLHTFKEETEEGIIDTIGAIFFILSYWTFYPAYLSLYSFPSEREVIAKERNMKTFQVSNYFLSKLLAEFIYFFMIIAFWILVTHLILYGTLKIGIYLSYAFITLLNALISSSLGYFISTLFDNFSKAVSFLSVVLLTMTLTNGFYVEISKLDVPFRYLQWLSYQTYSASVLAKIKFDDALIKCSPDNNSLPCKNNGFFPGEIIVQKRFATLHISISILILICFYSVIKTFTYVSLRWSQALKMK”: the protein production result is recorded as “failed”.
As to “MDLMAYWLCITNEDNWKVIKEKKIWGVAERYKNTINKVKVGDKLIIYEIQRSGKDYKPPYIRGVYEVVSEVYKDSSKIFKPTPRNPNEKFPYRVKLKEIKVFEPPINFKELIPKLKFITNKKRWSGHLMGKAMREIPEEDYKLIVGN”, the protein production entry is reported as “not failed”.
To “MDLNNNKSNNIVKTLARWCLLLQAFMISSNTVALKEPDYVNMNITIRNSMTGLIRPEIVYRCQSKRKDYGWHRSPKPGVQFSFPIILIKGETKIPAIHICQIRSVLGTATLVIQNTYLDAEMCPRSSCAHEATPKGIVFRGLEWDFKTVFPKLKPVEYLELPWTPWPNRT” belongs “failed”; to “MDLRVLLSGLAYSTIFGLSFLFTKNALDYVTPLTFLSFRFIVAFLSYLLLLITGAVKLGKKPYWKLWKLVLFQPVLYFLFETYGLQRVNSSEAGMIIALIPIVVNLLAPFILKEKGDLLHYLLVGMGFLGVSLIVGFNITPGNIVGKVFMLLAVLSGAMYSVFSRKFSKEFTPTEITFFMMMTGAVFFTLLSLSTGDFRPVFNVDVVIGALYLGVLSSTVAFFLLNYAIRKLSPIFTTLFSNFTTVVSVIAGVVFRNETVGIQQIAGMGLIISSLIIMSLRRSYKRLSRAQKL”, “failed”; to “MDLSSKPQQQLLNSLPIAGELTVTGEMGVCYKECLKNHAANLGGHALDGCGEFMPSPTATSTDPSSLRCAACGCHRNFHRRDPSENLNFLTAPPISSPSGTESPPSRHVSSPVPCSYYTSAPPHHVILSLSSGFPGPSDQDPTVVRSENSSRGAMRKRTRTKFTPEQKIKMRAFAEKAGWKINGCDEKSVREFCNEVGIERGVLKVWMHNNKYSLLNGKIREIEHGLCLNTHSNDGDGSSSS”, “not failed”.
The result for “MDLTIQHFIALAPLLITSLTVVVVMLAIAWRRNHSQTFLLSVAGLNLALLSIYPALKVAPLVVTPLLHIDNFACLYMAIILASTLACVTMAHAYLGDGKVGYPGNREELYLLILLAAAGGLVLVSAQHLAGLFIGLELLSVPVYGLVAYAFFNKRSLEGGIKYMVLSAAGSAFLLFGMALLYAEAGSLSFEGIGKAIAATGMPSPIATVGLGMMVVGLAFKLSLVPFHLWTPDVYEGAPAPVAAFLATASKVAVFAVLVRLFQISPAASSGVLHDVMAVIAVASILVGNLLALTQTNLKRLLGYSSIAHFGYLMIALVASKGMAVEAIGVYLATYVLTSLGSFGVITMMSSPYSGRDADAMFEYRGLFWRRPYLTAVMTLMMLSLAGIPLTAGFIGKFYIIATGVESQLWWLIGALVIGSAIGVFYYLRVMVTMYLVDNKLPRHDAAINWAQRTGGVMLLAVAILTFVLGVYPQPLLDLVVNAGLHAAG” reads “not failed”; that for “MDLVVITETTIPTKITHVNKKSSDELLRKFADPDDVDESSKSTKRRKKSAKSSSREKGVDIESNTSGLVERKRLLLAPASKRRSLFIRQLASGKSHLRNKSLVRTIGKTWRKTMEGASRVFIEKHYNRHRRLTNDVV”, “failed”.
To “MDMEQRERWATKIGLILAMAGNAIGLGNFVRFPTQVAGNGGGAFMVPYFLALFLLGIPVMWVEWVQGRYGGKYGHGTLGPTFYLMARESLKPRSALWFGLIGGALAFATTTLLNSYYLHLIGWSAAYSWFSITGAYYGKNTAQFFSQYLSNHGLVFLFWGITVVLLGIAVGQGVSKGIERWVKVMMPLLYVFAIILVIYVFALGSPLGQPQWSTIKGFEFIWSPNWGYLKDHLWKVMLAASGQIFFTLSLGMGIIQNYASYLGPKDDVALSGLATVSLNEFAEVVLGGSIAVPLAVAYAPKIVPPDVLAKGSDAALAWISENFGLGFSYTSLPNIFVQMGTAGRFFGALWFLLLWFAGFTSAIAMYNYLTALLEEDLGIKRSVGTWVVFIIYFLLGIPVVYINGYLDQVDAWISFQLALLALFDIIVSVWLFKPDNFWRELHEGALINVPEFYKWITVIIAPIFIALPLFGTFTDLVSKTLGWPAKIAILTMLTIGAIEAYYAIKKKYGEELEKNEVIIKV” belongs “failed”; to “MDNASEQRNYTTFWVGLASLTLEVVFIMAKSRVKKRPDGRYAMQIYLGTVDGKRKYKTVYGGTPKEVQKKADEVRILMGKGIDISAQRDTFKEWGNHWLKIKKAIVSSAHYKTCEQKLRIINCYIGDMPISQIKTANVQNIIFDLSSLNRWTGKPTAKRTLVEYRSVCRQVFQLAIENRIIDYNPASSVKIVSNQLKKERRALSVEEQGWIINTPHRAQKAAMIMMFAGLRRGEVIPLTWNDIDFEAGTIRVNKSVFKEGTRFNIKSGAKTESGNRVVNIPQILIDFLKLQPKDTILVCPDTKDVMMTETSWRRMWDSYIKDLNIKYGDLNGKRSKYDPKGVPITIPRITPHWLRHTFCTLLYLSGTDVLTAKEQMGHSDIKTTLGIYTHLDKEHKRNAVSKLNEYIETHASHMQVKNS”, “failed”; to “MDNLSFHDGNIFNLLHTRSQDPSHEVDQRMQFHSSLVRRLSQEQELEGHQGCVNALAWNSNGSLLISGSDDLRINIWNYSSRKLLHSIDTGHTANIFCTKFVPETSDELVVSGAGDAEVRLFNTSRLSGRAEDDNAIIPSALYQCHTRRVKKLAVEPGNPNVVWSASEDGTLRQHDFRESTSCPPAGTAHQECRSVLLDLRSGAKRALADPPKQTLSLKSCDISATRPHLLLVGGSDAFARLYDRRMLPPLASSRKRMPPPPCVNYFCPMHLSERGRTNLHLTHVTFSPNGEEVLLSYSGEHVYLMNVNNGICSTGIMQYTPGDVDNLFSFSNNLHDVESPPQVSTTPQNGFHRSSNAATVKKCTELVEIAKWSLEEGTDVFYAIEAANEVLDAHSNDIESALRHECLCTRAALLLKRKWKNDAHMAVRDCHNARRIDASSFKAHYYMSEALQQLGKCKEALDFATAAQHMNPSDADIVAKVESIKRDLQAAGAEKNEETGAGTTRVLSLSDILYRSEANSDSSHDMSRSEREDSDYDEELELDIQTSLSDDEGRDTDSNSMRGSLNLRIHRVGDDKPMENTVDNASSGTASSSQNDRTSYQPEGAIDMKRRYVGHCNVGTDIKQASFLGQRGEYIASGSDDGRWFIWEKQTGRLMKVLVGDESVLNCIQCHPFDSVVATSGIDNTIKIWSPTASVPSIVAGGSAGPATANVVEVMESNQQKLSRNRENPLSVELMQRFRMQEFAEGNFHPFECTQS”, “failed”.
Take “MDNRTGEMEVFVSAAELQSFSAAGRRLKLSPSAVSKLVTRIEDRLGTRLLVRSTRMMTLTPEGEIYLARARRILADIADTEQIVAAGGKLVPRGLLRVNASVGFGERFLLPLIPAFLELYPEVQLDISLTDGIIGLIEERTDIAIRSGAMDDSSLKARKLLESRRVIIASPSYIKRHGMPQTPADLAAHNCFSFNFRRSLNEWPFRDPGSTEIYRLPVSGNSSVNSGMIMRRLCLAGSGLGRVGQFHVQPDIDAGTLVPVLEDYNPDDIEEIHAVFAGHEHLATRIRAFIDFLAEHVGKDRA”: the protein production result is reported as “failed”.
The result for “MDNSGIYVGLDIGTTSIKVIVAERVKGQMNVIGVGSARSNGLSRGVIVDIDKAAETIRSAVRQAEEKASIEIKKVIAGVPANLVKIERCRGMIAVADESKEINNEDVQNVAAAALVQSLPPEREVLDVIPDEFVVDGFDGIKDPRGMVGVRLEMHGTLFTGPKTIIHNTRKALEKAGLQIEQIVIAPLALSSLVLNDGEQDFGSIIIDMGGGQTTAAVIHDHQLKYTYVDQEGGQYITKDISVVLNTSIENAEKLKRDYGYADAQQASDDELFPVDVVGQSTPEQISEQYLAEIIEARLDQIFDKVKQHLDEIRALELPGGIVLTGGVAALPGITDLAAQRFGTRVRVFTPNQMGLRHPSFDEALAVIKYQAALSEVTLLVKSALTGDTRASVALEFADTTPAPSQPAAQPKKATKKQSAPQAPQEQADPDHKGTVERVKGFFNHFFD” reads “failed”; that for “MDNSLLSEIWRQSLAFPWLSAVILNSFLLALAAIAPKKLLTPWGYGHAWVLGVIIWAALGWRGYLVVLAYFFVGSAVTRIGQKEKEAAGIAEKRSGQRGPENVWGSALTAALCALAIAFGPEPWQLWLALGYVASFSTKLSDTTASEVGKAYGKNTFLITTLQPVPRGTEGAVSVEGTLAGFAAGLALAVLGYGVGLISFGGIIFSTLAAFIATNLESVIGATLQNKWPWLTNEVVNGINTFLGAAIAIGIEATAQLI”, “failed”; that for “MDNVGCDKRISWPCHCSKSRTAPRRGSHLMARGRKRRFNPNIPGHIEQEALPKGIYWENGRWYMHEDHPDGGRQVKRTVAFRSARLSELHAIAESRLRGDVRGTLRYLFDRFHEASEFKELQHDTQKDYRRYADTLANYVRKDGSKLGGVQLEHITTPVVQRLLETFANGRPATRLQQALPPTPSKANHLYRYLRRTLAWGVRHGYCKENPAIGVLQAKEAKAFRMPTPDAFEAVLQFARERGALKPHTKGSFPSYLPPVMVLAYSARLRGIEVCSLTDAHRLEHGVHASRRKGSRDTLTTWDAHMTEAWEALLARRSEICNKPGRNFPIPMKPEERFFLIEQTGNPIVKSSLDSAWQRFIPAAIRDGVIKSEERFSLHGLKHRGVTDTEGNRGDKQDAAGHVSSSMTDRYDHELPVVKPPRRR”, “failed”.
The result for “MDPCTGGNGCVHICQSENGTARCACHAGYQLPEDKNICEDINECAEGLSYCGHCCVNSMGSFTCACQTGFELGADRKQCYSNWQQSQPRLYLSLSDFFLLFPVHDYTLPGIELEIVNSCEKNNSVCSHHREHEIGAPRCSCNHGHQLDSDEKTCIDLDECENGEACCAQLCINYLGGYKCRCQEGFQITSNGCECDALDDDELEEEEEE” reads “failed”.
As to “MDPKKADIIRLEALPQDLLGGIVAKVGATTAEDFHNCILVCKELGASANDKHVFKTLNLALLVKKPLSGTQTPSYYENMS”, the protein production result was “not failed”.
To “MDPLKRVENELKKCVKCGACRAHCPAFATFGKEPAVARGKVALAQHLLKGDIELDDATYAAMSKCLLCGSCVEKCPNDVPTDEIVVVAREALSGQRGLTTFHAAVGRVIRNRSLMKFGAAAARILGPLFFRKVPETSGLRLRFPLPFLGGKRHIPSIAKKPFLDRHPEVIPGEPGKPRIVYFVGCMTNFCYPQVGEAALALFRHLGCTVIIPKNQQCCGLPGMSGGDLDTVRGLAEKNLAELERYEADYIMTACATCGGALHKFYPNLVGKRHPELAARLKAIAEKTVDAAQLLQKLGLNPEETGAGSDIRVTYHDPCHLRTRAITRQPRELLQGTPGVELAEMEGADKCCGLGGTFNVYHYESSLAINKMKSAAIINTGADAVVTGCPGCMMQLSDGLKQQRNRTRVLHTLEILARSIRP” belongs “failed”.
